Data from PMC12820186.

T1: CsEIN3 DNA-binding domain (CsEIN3-BD) (cucumber, UniProt A0A0A0LXB4 1-412)
T1 sequence: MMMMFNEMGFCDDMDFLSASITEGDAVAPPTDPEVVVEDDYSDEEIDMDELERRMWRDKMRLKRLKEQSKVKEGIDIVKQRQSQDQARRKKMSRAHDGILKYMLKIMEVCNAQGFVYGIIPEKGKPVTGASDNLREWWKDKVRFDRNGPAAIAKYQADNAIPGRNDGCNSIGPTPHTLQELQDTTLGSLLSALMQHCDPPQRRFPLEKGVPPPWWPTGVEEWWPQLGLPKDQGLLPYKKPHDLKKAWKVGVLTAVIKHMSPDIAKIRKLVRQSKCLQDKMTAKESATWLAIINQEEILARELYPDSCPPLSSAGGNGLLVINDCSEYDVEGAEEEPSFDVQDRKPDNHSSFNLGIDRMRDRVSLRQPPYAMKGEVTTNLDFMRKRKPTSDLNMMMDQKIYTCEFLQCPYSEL

B1: proCsCYP707A4 p4 probe (dsDNA)
DNA 1: GCGAACGTCGTGTGAAGTACTTCATGGAGACGAATA
DNA 2: TATTCGTCTCCATGAAGTACTTCACACGACGTTCGC
B2: proCsCYP707A4 p2 probe (dsDNA)
DNA 1: CGTCGTGTGAAGTACTTCATGGAGACGAATAAAAG
DNA 2: CTTTTATTCGTCTCCATGAAGTACTTCACACGACG
B3: proCsCYP707A4 p3 probe (dsDNA)
DNA 1: TTGCCAACTAATTTCATGTTCAATCAATGAAAGTGA
DNA 2: TCACTTTCATTGATTGAACATGAAATTAGTTGGCAA

The binders below were run against T1, CsEIN3 DNA-binding domain (CsEIN3-BD) (assay: EMSA).

Binding result, no binding:
B1
B2
B3
